Substitutions are numbered along the chain they refer to.
B1: A12 mutant 1 (Tyr101 to Ala101) (VHH)
VHH: AVQLVESGGGLVQAGGSLRLSCTASGRISSSYDMGWFRQAPGKEREFVAAISWSGGTTDYADSVKGRFAISKDNAKNAVSLQMNSLKPEDTAVYYCAAKWRPLRYSDYPSNSDYADWGQGTQVTVSS
B2: D7 VHH (VHH)
VHH: B1 VHH with V12A, A24V, I28T, Y32H, D59N, Y108N, A115N, D116Y
B3: A12 mutant 3 (Tyr101 to Gln101) (VHH)
VHH: B1 VHH with A115Q
B4: A12 VHH (VHH)
VHH: B1 VHH with A115Y
B5: mutant 7 of A12/D7 (VHH)
VHH: B1 VHH with V12A, A24V, I28T, Y32H, D59N, Y108N, A115N
B6: A12 mutant 2 (Tyr101 to Asn101) (VHH)
VHH: B1 VHH with A115N

Experiments:
[1] = target: T1, Recombinant gp120 from HIV-1 IIIB (HIV-1 IIIB, UniProt P04578); assay: cell-based or functional assay
[2] = target: T1, Recombinant gp120 from HIV-1 IIIB; assay: SPR

Row | Binder | neutralisation of HIV-1 IIIB, TZM-bl luciferase assay, IC50 [1] [mg/L] | Kd [2] [nM] | koff [2] [s⁻¹] | kon [2] [M⁻¹ s⁻¹]
1 | B1 | < 1 |  |  | 
2 | B2 |  | 2.9 | 0.000551 | 155000
3 | B3 | < 1 |  |  | 
4 | B4 |  | 0.1 | 2.98e-05 | 273000
5 | B5 | < 1 |  |  | 
6 | B6 | < 1 |  |  | 

Source: PMC2885190 (The Journal of Biological Chemistry, 2010)
